According to article doi:10.1101/433839:

Experiments:
Y118A SsuE = Y118A SsuE (UniProt P80644); assay: other fluorescence titration
[1] = biological target: wild-type SsuE (NADPH-dependent FMN reductase of the alkanesulfonate monooxygenase system) (UniProt P80644); assay: other fluorescence titration

Kd (Y118A SsuE): 122 nM
Kd [1]: 40 nM
B1: wild-type SsuD (FMNH2-dependent alkanesulfonate monooxygenase) (enzyme)
chain: MSLNMFWFLPTHGDGHYLGTEEGSRPVDHGYLQQIAQAADRLGYTGVLIPTGRSCEDAWLVAASMIPVTQRLKFLVALRPSVTSPTVAARQAATLDRLSNGRALFNLVTGSDPQELAGDGVFLDHSERYEASAEFTQVWRRLLQRETVDFNGKHIHVRGAKLLFPAIQQPYPPLYFGGSSDVAQELAAEQVDLYLTWGEPPELVKEKIEQVRAKAAAHGRKIRFGIRLHVIVRETNDEAWQAAERLISHLDDETIAKAQAAFARTDSVGQQRMAALHNGKRDNLEISPNLWAGVGLVRGGAGTALVGDGPTVAARINEYAALGIDSFVLSGYPHLEEAYRVGELLFPLLDVAIPEIPQPQPLNPQGEAVANDFIPRKVAQS
